# Measurements taken from doi:10.1101/768341.
# Target: GST-TRAF6 (mouse) (UniProt P70196)
# Assay: SPR
# Chain of UniProt P70196 (P70196 whole entry): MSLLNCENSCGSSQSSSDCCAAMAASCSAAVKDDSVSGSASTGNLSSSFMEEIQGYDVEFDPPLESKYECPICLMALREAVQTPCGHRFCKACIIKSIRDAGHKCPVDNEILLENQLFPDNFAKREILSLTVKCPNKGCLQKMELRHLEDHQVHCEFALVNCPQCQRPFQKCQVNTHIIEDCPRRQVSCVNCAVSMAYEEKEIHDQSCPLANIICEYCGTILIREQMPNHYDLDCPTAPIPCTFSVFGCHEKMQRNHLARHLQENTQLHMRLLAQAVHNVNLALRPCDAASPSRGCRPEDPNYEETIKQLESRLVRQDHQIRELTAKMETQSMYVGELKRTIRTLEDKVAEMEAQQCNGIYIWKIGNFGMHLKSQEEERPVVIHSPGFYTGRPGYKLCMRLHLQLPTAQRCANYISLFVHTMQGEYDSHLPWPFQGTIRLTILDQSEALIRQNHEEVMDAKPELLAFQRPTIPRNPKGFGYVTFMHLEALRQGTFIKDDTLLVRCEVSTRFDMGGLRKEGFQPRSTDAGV
substance,measurement,value
neuroplastin intracellular peptide containing the TRAF6 binding motif,Kd,88 µM
same,stoichiometry N,1
